Reference: PMC10783487

Target: T1, TbrCan2 E341A E341A (Thermoanaerobacter brockii subsp. finnii Ako-1 DSM 1457) (UniProt E8URK0)
T1 sequence: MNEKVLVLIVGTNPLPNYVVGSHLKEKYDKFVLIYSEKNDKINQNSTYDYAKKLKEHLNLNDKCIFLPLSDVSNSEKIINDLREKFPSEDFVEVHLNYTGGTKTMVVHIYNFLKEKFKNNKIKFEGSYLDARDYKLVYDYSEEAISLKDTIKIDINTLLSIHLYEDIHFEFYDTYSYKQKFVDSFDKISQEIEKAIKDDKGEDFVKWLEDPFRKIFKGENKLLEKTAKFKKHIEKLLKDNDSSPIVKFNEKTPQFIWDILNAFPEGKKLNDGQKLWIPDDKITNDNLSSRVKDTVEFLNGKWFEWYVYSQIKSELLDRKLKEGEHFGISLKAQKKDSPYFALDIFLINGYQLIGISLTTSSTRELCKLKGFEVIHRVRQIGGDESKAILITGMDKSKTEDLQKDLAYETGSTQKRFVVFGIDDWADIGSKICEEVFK
Experiment: EMSA

## ssRNA substrate
  Kd: 240 nM
